Source: the RNAGym collection of RNA variant scans (doi:10.7554/elife.80360)

B1: HDV Ribozyme (parent)
chain: GGCCGGCAUGGUCCCAGCCUCCUCGCUGGCGCCGGCUGGGCAACAUUCCGAGGGGACCGUCCCCUCGGUAAUGGCGAAUGGGACCCA

Variants of: B1
Assay: self-cleavage, relative activity (ratio to wild type); higher = more cleavage; co-transcriptional
For C63A A83U, the self-cleavage was 0.77.
U65A G68A showed a self-cleavage of 0.641.
Work on U65G C84A yielded a self-cleavage of 1.04.
With C63G C84G the self-cleavage was 0.306.
In the case of C62U A78U, the self-cleavage is reported as 0.282.
Variant C62U A78C has a self-cleavage of 0.0936.
U65A G73U gave a self-cleavage of 0.217.
For U65A A78C, the self-cleavage was 0.259.
C62A A71G showed a self-cleavage of 1.03.
For C62A A71C, the self-cleavage was 0.85.
Variant G67C G73U has a self-cleavage of 0.322.
G68C A71G showed a self-cleavage of 0.831.
In the case of C61G C63G, the self-cleavage is reported as 0.481.
C61U U72G gave a self-cleavage of 0.567.
C66G U79C gave a self-cleavage of 0.521.
C64A C86A showed a self-cleavage of 0.942.
C61U G73A showed a self-cleavage of 0.547.
C62A C84U showed a self-cleavage of 0.618.
C61A G76U showed a self-cleavage of 1.05.
Work on G67U A78U yielded a self-cleavage of 0.253.
In the case of U65G U79C, the self-cleavage is reported as 0.19.
C66U G67A showed a self-cleavage of 0.786.
Variant C62A G81C has a self-cleavage of 0.138.
For U65C A71C, the self-cleavage was 0.703.
In the case of C61G C64U, the self-cleavage is reported as 0.755.
In the case of C64A G73A, the self-cleavage is reported as 0.385.
C64A G73U gave a self-cleavage of 0.332.
For U65C G73A, the self-cleavage was 0.746.
U65C G73U showed a self-cleavage of 0.554.
For C61U U69G, the self-cleavage was 0.864.
C63U C86G gave a self-cleavage of 1.11.
G67C A83C showed a self-cleavage of 0.293.
With G67A A77U the self-cleavage was 0.339.
For C62U U69G, the self-cleavage was 1.07.
C64G U72A gave a self-cleavage of 0.614.
U65G G82U gave a self-cleavage of 0.453.
With U65C U79C the self-cleavage was 0.415.
With G68C A70U the self-cleavage was 0.778.
Work on C61U G81A yielded a self-cleavage of 0.44.
U65A G76U gave a self-cleavage of 1.04.
For U65C A87C, the self-cleavage was 1.09.
For C61A G82A, the self-cleavage was 0.46.
With G68C A78G the self-cleavage was 0.426.
Work on C66U A71G yielded a self-cleavage of 0.909.
In the case of C63G U79A, the self-cleavage is reported as 0.856.
Variant C63G U79C has a self-cleavage of 0.697.
C66U A83G showed a self-cleavage of 0.643.
Variant C61A A83G has a self-cleavage of 0.997.
In the case of G67C A77C, the self-cleavage is reported as 0.227.
Variant C63G A70G has a self-cleavage of 0.76.
Variant C63G A70U has a self-cleavage of 0.564.
G68C G82C gave a self-cleavage of 0.259.
Variant U65A A70U has a self-cleavage of 1.14.
For C66G A77G, the self-cleavage was 0.612.
Work on C62A C63G yielded a self-cleavage of 0.7.
With G68C U72C the self-cleavage was 0.38.
In the case of G68C U72A, the self-cleavage is reported as 0.499.
With G67A A87C the self-cleavage was 0.956.
Work on G67A A87U yielded a self-cleavage of 1.06.
With C66U A77C the self-cleavage was 0.34.
C61A A78U gave a self-cleavage of 0.131.
For C63G A71U, the self-cleavage was 0.712.
For C63G A71G, the self-cleavage was 0.656.
With C61G G67A the self-cleavage was 0.743.
For C63U A87U, the self-cleavage was 1.01.
Variant U65G A87G has a self-cleavage of 0.973.
Work on U65G A87C yielded a self-cleavage of 0.859.
C66U G80U gave a self-cleavage of 0.295.
For U65A C66A, the self-cleavage was 1.08.
With C63G C64A the self-cleavage was 0.862.
C63G C64U showed a self-cleavage of 0.753.
In the case of C66G A83G, the self-cleavage is reported as 0.72.
With C66G A83U the self-cleavage was 0.415.
In the case of C64A U65C, the self-cleavage is reported as 0.831.
With C64G U69C the self-cleavage was 1.29.
C64G U69G gave a self-cleavage of 0.91.
Work on U65A A87U yielded a self-cleavage of 0.96.
U65A G80A gave a self-cleavage of 0.201.
G68A C75A gave a self-cleavage of 0.164.
G67C G74C showed a self-cleavage of 0.123.
In the case of C61G C84A, the self-cleavage is reported as 0.708.
Variant C61U U79C has a self-cleavage of 0.487.
For C63G C85A, the self-cleavage was 0.95.
With C62U A70U the self-cleavage was 0.831.
With C62U A70C the self-cleavage was 0.734.
C66U C84G gave a self-cleavage of 0.57.
With C63G G73U the self-cleavage was 0.397.
C62A G76C showed a self-cleavage of 1.02.
For C64G G68C, the self-cleavage was 0.264.
C62G G81C showed a self-cleavage of 0.208.
Variant C61G A70C has a self-cleavage of 0.944.
With C62G A77G the self-cleavage was 0.745.
C62G A77C gave a self-cleavage of 0.353.
Work on C64U G80C yielded a self-cleavage of 0.158.
For C63U A70G, the self-cleavage was 1.02.
In the case of G67U C84U, the self-cleavage is reported as 0.771.
Work on C61A G81C yielded a self-cleavage of 0.287.
Variant C61G G68U has a self-cleavage of 0.964.
C63U A78C showed a self-cleavage of 0.237.
In the case of C63U A78U, the self-cleavage is reported as 0.287.
In the case of C63U A78G, the self-cleavage is reported as 0.755.
With C64U G68U the self-cleavage was 0.607.
With C63G A83U the self-cleavage was 0.271.
For C63G A83C, the self-cleavage was 0.249.
Variant G67C G76A has a self-cleavage of 1.11.
Work on G67C G76U yielded a self-cleavage of 1.11.
G67A G82C showed a self-cleavage of 0.224.
U65G C75G showed a self-cleavage of 0.323.
In the case of U65G C75A, the self-cleavage is reported as 0.259.
Variant C66U U69G has a self-cleavage of 0.867.
In the case of C63U G73U, the self-cleavage is reported as 0.409.
C62A G80U showed a self-cleavage of 0.16.
C62G C75U showed a self-cleavage of 0.189.
C62U A83U showed a self-cleavage of 0.318.
C62U A83C showed a self-cleavage of 0.359.
In the case of C62G G82U, the self-cleavage is reported as 0.0923.
In the case of C64A A87U, the self-cleavage is reported as 0.71.
With C64G G67A the self-cleavage was 0.356.
In the case of G67U C86A, the self-cleavage is reported as 1.
With U65C G80C the self-cleavage was 0.249.
C62A G74U gave a self-cleavage of 0.367.
In the case of C62A G74A, the self-cleavage is reported as 0.619.
In the case of C62U G81A, the self-cleavage is reported as 0.531.
Work on C64G C84G yielded a self-cleavage of 0.76.
With C61U A87G the self-cleavage was 0.933.
C61U A87C gave a self-cleavage of 0.784.
C62G G67A showed a self-cleavage of 0.095.
U65G G67C gave a self-cleavage of 0.156.
Variant U65G G67U has a self-cleavage of 0.569.
In the case of C61U C63U, the self-cleavage is reported as 0.958.
In the case of G67U A71U, the self-cleavage is reported as 0.992.
Work on U65A C85U yielded a self-cleavage of 0.791.
In the case of U65A C85A, the self-cleavage is reported as 0.858.
Variant C62G C85A has a self-cleavage of 0.717.
For C62G C85U, the self-cleavage was 0.902.
For C66G G76A, the self-cleavage was 1.02.
Variant C61A G68C has a self-cleavage of 0.873.
C62G A71G showed a self-cleavage of 0.346.
Variant C66U U79C has a self-cleavage of 0.571.
G68C A83U gave a self-cleavage of 0.318.
For C62U G74A, the self-cleavage was 0.383.
C62U G74C showed a self-cleavage of 0.234.
Work on C62U A71U yielded a self-cleavage of 1.05.
In the case of C64G A71U, the self-cleavage is reported as 0.863.
With C62A C64A the self-cleavage was 0.332.
For C62A C64G, the self-cleavage was 0.142.
C61U G82A gave a self-cleavage of 0.325.
Variant G67U G74C has a self-cleavage of 0.151.
For G67U G74A, the self-cleavage was 0.379.
In the case of C66U G82U, the self-cleavage is reported as 0.277.
For C62A C75G, the self-cleavage was 0.0519.
With C61A U69A the self-cleavage was 1.09.
With C61A U69G the self-cleavage was 1.03.
C66A C85G showed a self-cleavage of 0.918.
Variant C63G G74C has a self-cleavage of 0.128.
With G67U A77C the self-cleavage was 0.373.
With C64G A83C the self-cleavage was 0.373.
Variant C62G G68U has a self-cleavage of 0.425.
With C62G G68A the self-cleavage was 0.199.
With C62U A77G the self-cleavage was 0.831.
C62G C66U showed a self-cleavage of 0.554.
C64U U79C showed a self-cleavage of 0.306.
Variant C64U U79G has a self-cleavage of 0.847.
With C66A A87C the self-cleavage was 1.
C63A C85G gave a self-cleavage of 0.849.
G67A U72A gave a self-cleavage of 0.532.
In the case of U65G G76A, the self-cleavage is reported as 0.95.
